Experiment [1] addresses T1, 4H850-bH.
T1 chain: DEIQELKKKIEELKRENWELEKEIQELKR
Briefly: two-hybrid library CCNG1.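 Note: natural log of median RNA to DNA barcode read ratio; higher means stronger binding.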

In experiment [2] the target is T2, 4H3974-bH.
T2 chain: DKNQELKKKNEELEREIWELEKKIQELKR
Briefly: two-hybrid library CCNG1.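 Note: natural log of median RNA to DNA barcode read ratio; higher means stronger binding.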

Experiment [3] has as its target T3, 4H906-bH.
T3 chain: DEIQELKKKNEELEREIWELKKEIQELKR
Briefly: two-hybrid library CCNG1.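 Note: natural log of median RNA to DNA barcode read ratio; higher means stronger binding.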

Experiment [4] has as its target T4, 4H584-bH.
T4 chain: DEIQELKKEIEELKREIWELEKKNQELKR
Briefly: two-hybrid library CCNG1.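 Note: natural log of median RNA to DNA barcode read ratio; higher means stronger binding.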

Experiment [5] has as its target T5, 4H570-bH.
T5 chain: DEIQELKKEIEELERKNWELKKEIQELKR
Briefly: two-hybrid library CCNG1.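 Note: natural log of median RNA to DNA barcode read ratio; higher means stronger binding.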

In experiment [6] the target is T6, 4H619-bH.
T6 chain: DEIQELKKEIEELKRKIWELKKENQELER
Briefly: two-hybrid library CCNG1.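 Note: natural log of median RNA to DNA barcode read ratio; higher means stronger binding.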

Experiment [7] addresses T7, APC9291-AA.
T7 chain: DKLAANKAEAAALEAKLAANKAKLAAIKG
Nature of the experiment: two-hybrid library CCmax. As to conditions: mean of both orientations.

The target in experiment [8] is T8, APC8401-AA.
T8 chain: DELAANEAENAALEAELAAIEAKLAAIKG
Nature of the experiment: two-hybrid library CCmax. The settings on record: mean of both orientations.

Experiment [9] has as its target T9, APC7524-AA.
T9 chain: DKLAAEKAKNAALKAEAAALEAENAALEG
Briefly: two-hybrid library CCmax. As to conditions: mean of both orientations.

Experiment [10] concerns the target T10, APC9806-AA.
T10 chain: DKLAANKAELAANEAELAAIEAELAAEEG
Briefly: two-hybrid library CCmax. As to conditions: mean of both orientations.

For experiment [11], the target named is T11, APC4100-AA.
T11 chain: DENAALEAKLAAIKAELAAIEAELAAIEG
Nature of the experiment: two-hybrid library CCmax.

The target in experiment [12] is T12, APC9182-AA.
T12 chain: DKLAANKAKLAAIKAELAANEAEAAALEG
Nature of the experiment: two-hybrid library CCmax. The settings on record: mean of both orientations.

Experiment [13] concerns the target T13, APC5531-AA.
T13 chain: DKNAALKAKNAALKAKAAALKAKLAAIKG
Briefly: two-hybrid library CCmax. The settings on record: mean of both orientations.

The target of experiment [14] is T14, APC4336-AA.
T14 chain: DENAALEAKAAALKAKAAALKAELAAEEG
Briefly: two-hybrid library CCmax. The settings on record: mean of both orientations.

Experiment [15] addresses T15, APC8516-AA.
T15 chain: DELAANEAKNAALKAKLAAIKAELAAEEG
Nature of the experiment: two-hybrid library CCmax. As to conditions: mean of both orientations.

In experiment [16] the target is T16, APC542-AA.
T16 chain: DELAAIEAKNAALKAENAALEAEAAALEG
Briefly: two-hybrid library CCmax. As to conditions: mean of both orientations.

Experiment [17] deals with T17, APC6088-AA.
T17 chain: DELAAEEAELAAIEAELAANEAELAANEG
Nature of the experiment: two-hybrid library CCmax. The settings on record: mean of both orientations.

For experiment [18], the target named is T18, APC5009-AA.
T18 chain: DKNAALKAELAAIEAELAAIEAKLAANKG
Nature of the experiment: two-hybrid library CCmax. As to conditions: mean of both orientations.

The target of experiment [19] is T19, APC9141-AA.
T19 chain: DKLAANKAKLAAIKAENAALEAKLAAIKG
Nature of the experiment: two-hybrid library CCmax. As to conditions: mean of both orientations.

For experiment [20], the target named is T20, 4H56-bN.
T20 chain: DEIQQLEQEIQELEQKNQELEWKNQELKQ
Nature of the experiment: two-hybrid library CCNG1.

For experiment [21], the target named is T21, 4H932-bN.
T21 chain: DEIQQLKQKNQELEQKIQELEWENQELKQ
Nature of the experiment: two-hybrid library CCNG1.

Experiment [22] deals with T22, 4H949-bN.
T22 chain: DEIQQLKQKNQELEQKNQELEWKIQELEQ
Nature of the experiment: two-hybrid library CCNG1.

For experiment [23], the target named is T23, 4H730-bN.
T23 chain: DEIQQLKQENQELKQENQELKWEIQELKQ
Nature of the experiment: two-hybrid library CCNG1.

Experiment [24] deals with T24, 4H349-bN.
T24 chain: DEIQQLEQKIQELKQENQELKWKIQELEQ
Briefly: two-hybrid library CCNG1.

Experiment [25] concerns the target T25, 4H796-bN.
T25 chain: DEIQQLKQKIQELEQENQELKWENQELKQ
Briefly: two-hybrid library CCNG1.

Experiment [26] deals with T26, 4H697-AA.
T26 chain: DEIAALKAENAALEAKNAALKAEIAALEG
Briefly: two-hybrid library CCmax. As to conditions: mean of both orientations.

Experiment [27] concerns the target T27, 4H3865-AA.
T27 chain: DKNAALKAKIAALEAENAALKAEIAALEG
Nature of the experiment: two-hybrid library CCmax. As to conditions: mean of both orientations.

Experiment [28] deals with T28, 4H3631-AA.
T28 chain: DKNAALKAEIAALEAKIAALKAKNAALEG
Briefly: two-hybrid library CCmax. As to conditions: mean of both orientations.

Experiment [29] addresses T29, 4H3697-AA.
T29 chain: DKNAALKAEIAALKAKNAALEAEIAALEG
Nature of the experiment: two-hybrid library CCmax. As to conditions: mean of both orientations.

The target of experiment [30] is T30, 4H2907-AA.
T30 chain: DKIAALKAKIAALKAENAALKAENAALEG
Nature of the experiment: two-hybrid library CCmax.

For experiment [31], the target named is T31, 4H3056-AA.
T31 chain: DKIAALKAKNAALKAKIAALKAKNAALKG
Briefly: two-hybrid library CCmax. As to conditions: mean of both orientations.

Experiment [32] deals with T32, 4H3606-AA.
T32 chain: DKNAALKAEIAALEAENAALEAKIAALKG
Nature of the experiment: two-hybrid library CCmax. The settings on record: mean of both orientations.

In experiment [33] the target is T33, 4H384-AA.
T33 chain: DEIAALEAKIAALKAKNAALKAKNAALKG
Nature of the experiment: two-hybrid library CCmax. The settings on record: mean of both orientations.

The target in experiment [34] is T34, 4H3588-AA.
T34 chain: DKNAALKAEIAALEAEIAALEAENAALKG
Nature of the experiment: two-hybrid library CCmax. The settings on record: mean of both orientations.

Experiment [35] addresses T35, 4H32-AA.
T35 chain: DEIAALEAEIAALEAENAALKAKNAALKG
Nature of the experiment: two-hybrid library CCmax. As to conditions: mean of both orientations.

Experiment [36] addresses T36, 4H3162-AA.
T36 chain: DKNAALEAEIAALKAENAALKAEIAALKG
Nature of the experiment: two-hybrid library CCmax. The settings on record: mean of both orientations.

In experiment [37] the target is T37, 4H3378-AA.
T37 chain: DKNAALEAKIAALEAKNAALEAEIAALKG
Nature of the experiment: two-hybrid library CCmax. The settings on record: mean of both orientations.

In experiment [38] the target is T38, 4H3718-AA.
T38 chain: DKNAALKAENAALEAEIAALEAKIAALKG
Nature of the experiment: two-hybrid library CCmax. The settings on record: mean of both orientations.

For experiment [39], the target named is T39, 4H982-AA.
T39 chain: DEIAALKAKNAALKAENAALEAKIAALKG
Briefly: two-hybrid library CCmax. As to conditions: mean of both orientations.

Experiment [40] deals with T40, 4H3413-AA.
T40 chain: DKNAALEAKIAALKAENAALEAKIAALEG
Nature of the experiment: two-hybrid library CCmax. As to conditions: mean of both orientations.

Experiment [41] has as its target T41, 4H340-AA.
T41 chain: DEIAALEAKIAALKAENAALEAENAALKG
Briefly: two-hybrid library CCmax. The settings on record: mean of both orientations.

Experiment [42] deals with T42, 4H3133-AA.
T42 chain: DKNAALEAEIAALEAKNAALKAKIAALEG
Briefly: two-hybrid library CCmax. As to conditions: mean of both orientations.

The target in experiment [43] is T43, 4H953-bH.
T43 chain: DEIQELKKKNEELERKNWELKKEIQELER
Briefly: two-hybrid library CCNG1.

Experiment [44] addresses T44, 4H575-bH.
T44 chain: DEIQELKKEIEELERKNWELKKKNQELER
Nature of the experiment: two-hybrid library CCNG1.

The target of experiment [45] is T45, 4H683-bH.
T45 chain: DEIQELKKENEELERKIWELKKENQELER
Nature of the experiment: two-hybrid library CCNG1.

For experiment [46], the target named is T46, 4H968-bH.
T46 chain: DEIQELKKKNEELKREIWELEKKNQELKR
Briefly: two-hybrid library CCNG1.

For experiment [47], the target named is T47, 4H797-bH.
T47 chain: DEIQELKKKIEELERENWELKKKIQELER
Nature of the experiment: two-hybrid library CCNG1.

Experiment [48] has as its target T48, 4H918-bH.
T48 chain: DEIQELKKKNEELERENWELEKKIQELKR
Briefly: two-hybrid library CCNG1.

The target of experiment [49] is T49, 4H780-bH.
T49 chain: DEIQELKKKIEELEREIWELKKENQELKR
Nature of the experiment: two-hybrid library CCNG1.

Experiment [50] concerns the target T50, 4H855-bH.
T50 chain: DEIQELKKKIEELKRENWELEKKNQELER
Nature of the experiment: two-hybrid library CCNG1.

Experiment [51] addresses T51, 4H754-bH.
T51 chain: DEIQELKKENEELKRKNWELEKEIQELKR
Nature of the experiment: two-hybrid library CCNG1.

Experiment [52] concerns the target T52, 4H967-AA.
T52 chain: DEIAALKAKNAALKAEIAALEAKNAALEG
Nature of the experiment: two-hybrid library CCmax.

Experiment [53] addresses T53, P8.
T53 chain: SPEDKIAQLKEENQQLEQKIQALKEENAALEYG
Briefly: two-hybrid library CC1.

Experiment [54] concerns the target T54, P9.
T54 chain: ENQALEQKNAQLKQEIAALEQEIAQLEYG
Nature of the experiment: two-hybrid library CC1. As to conditions: mean of both orientations.

Experiment [55] has as its target T55, P8mS.
T55 chain: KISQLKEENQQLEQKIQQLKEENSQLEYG
Nature of the experiment: two-hybrid library CC1. As to conditions: mean of both orientations.

This note sets out measurements from paper PMC10397247.

In the case of DKNQELKKKNEELEREIWELEKKIQELKR [4H3974-bH], the interaction score in [1] is -0.0332; in [2], -0.338; in experiment [3] it was -0.332; in [4] it was -0.203; in experiment [5], -0.965; in experiment [6], -0.167.

In the case of DEIQELKKEIEELKREIWELEKKNQELKR [4H584-bH], the interaction score in experiment [1] was determined as 0.297; in experiment [3], 0.202; in experiment [4], 1.18; in experiment [6], 1.2.

Turning to DENAALEAKLAAIKAELAAIEAELAAIEG [APC4100-AA], the interaction score in [7] was -1.29; in [8], -1.35; in experiment [9] it was -1.84; in experiment [10] it was -1.87; in [11], 0.507; in [12], -1.63. Moreover, the interaction score in experiment [13] is -0.557; in experiment [14] it was -0.916; in experiment [15], -1.71; in experiment [16], -1.56; in [17] it was -1.46; in [18], 0.706. Moreover, in [19], the interaction score is -1.35.

Take DEIQQLEQKIQELKQENQELKWKIQELEQ [4H349-bN]: the interaction score was -0.3 in experiment [20]; -0.258 in [21]; -0.958 in experiment [22]; -1.05 in experiment [23]; -1.89 in [24]; -0.249 in experiment [25].

Consider DKIAALKAKIAALKAENAALKAENAALEG [4H2907-AA], for which the interaction score is -1.18 in experiment [26]; -1.75 in [27]; -1.81 in experiment [28]; -1.97 in [29]; -0.959 in experiment [30]; -2.08 in experiment [31]. Besides, the interaction score in [32] was 0.48; in experiment [33], 1.15; in [34], 1.57; in experiment [35], 2.38; in experiment [36], -1.39; in experiment [37], -1.66. For the same molecule, the interaction score in [38] was -1.65; in [39], -1.58; in [40], -2.21; in [41] it was 1.31; in experiment [42], -1.24.

Take DEIQELKKEIEELERKNWELKKKNQELER [4H575-bH]: the interaction score in [43] is -0.118; in experiment [44], -0.14; in [45], -0.243; in experiment [46], -1.01; in experiment [47], -0.434; in [48] it was -0.438. Also, the interaction score in experiment [49] was -0.754; in experiment [50] it was 1.37; in experiment [51] it was -0.631.

Take DEIAALKAKNAALKAEIAALEAKNAALEG [4H967-AA]: the interaction score in experiment [52] was -0.481.

On to DEIQELKKEIEELERKNWELKKEIQELKR [4H570-bH], for which the interaction score was 1.01 in experiment [1]; 0.224 in [3]; -1.16 in experiment [4]; 1.19 in experiment [5]; -0.75 in experiment [6].

For the molecule SPEDKIAQLKEENQQLEQKIQALKEENAALEYG [P8], the interaction score in experiment [53] was -2.5; in experiment [54] it was -1.88; in [55], -2.75.
